# From the domain aggregation screens of Martell et al. (2025)
# Experiment: soluble fraction after stress (log2 fold change); higher = more stays soluble; pooled small domains, quantitative proteomics
# Details: stress: 75 degC
# 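Note: 20 min heating vs room temperature control held 20 min.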
row,Sequence,soluble fraction (log2)
1,HMNIIMLGEFIKEQRIKRKMTQEYLASELGISRPTYSQIELGTRELTIPEARKMAAIFNISLEDFLAEKE,-2.35
2,HMNIMNINQALNVLNLKGTVSKEELAKAYKKMAIKYHPDRNPTGVEMMKVINSAYEFLKGLNLEEIKH,0.0759
3,HMNINLNVGKRLKSIRQNKELSLDEVSNLTNVSKPALAQIERGASSPTINTLWKISKGLKVPLSYFLQE,-0.713
4,HMNINVRNTGIKAVENNIINLSSDQRTFTWASNDRKLITVPFDENPYSALAAWFKTDEGIEVYQTIEKKL,-0.0488
5,HMNIWNEWAFKKWIESDEYTGPDMTDFGHRTLVDEEFSKQYKEQMSLFKERVLTDDEFSAKYGDL,-0.811
6,HMNKEDIASNEKLLGLLNHMSKVLKDIDFIKDDRPMIVRKINHIFKKATLSEEEINILRGVLSAIENHS,-1.46
7,HMNKEKLLEMFESMSIIIVQSLEEKEQTEDRIETELFNEAKTPRYSTLTKQDIQSVIRNILITVGV,-1.76
8,HMNKELVVPDLTDMRVKDAEFEAHQVGMRTEIVDSVYVRRLKRGYVYKQNPVPGSKVKKGRRIALTINAV,0.212
9,HMNKETYIDALERKLWDRLDPDQLRDIISYYKDYFAMEAAKGISEEETIRKLGDPALLAKSILAAE,-0.332
10,HMNKEVDLPNFVGMTKENAQAQADKIKIKLEFEEEYSSDVEEGKIISQNPEYKENYKIKEKSTVSLKI,0.312
11,HMNKFKVNERVRVIATGEIGIVKGREILPVEGSKRVNIEYLVKVGNGFSNWKAFSKKELEPVR,-1.88
12,HMNKFRVGDEVEIVKLDKTIQHFGGEEVLSPVGTKTYITYVDVTGKEIEIDKDIYSYHADDLTLV,≥ 1.04
13,HMNKKLEMKIEQLDLSVRLFNSLKRSGIYTVAQIIKLTEEDVMRFRSLGRKSFKELKEKLSEHGLEFE,-2.14
14,HMNKLKALREEQGLSMMEIAKQLNMPYTTYVNYEKGTREPNSEMLIKFSKFFNVTIDYLIGNSEQKN,-2.48
15,HMNKNLQLMINEIKKGLASEDIETRKKSVLMLSRIDAPEIIQVLEPLKDDSSEEIRKISSKIISVLSKKYT,-0.108
16,HMNKNQGVTTTNLNFRKSASTSSLVLYTIPKNTTLDILDKLPSGWYKVKYKGLTGYVSGSYV,-2.99
17,HMNKPTFNIFNNRLTFPFKGDITIYSLDGKRVFSAYNESSVNLSFLNRGSYISEFNNSRSVLIL,-1.34
18,HMNKRKQRINDLMDLIREQPALSIKNLAEMLNVSEMTIRRDMAYLKSNNLLNRAHGMNFLNS,-0.407
19,HMNKSEFLNELEKRIRVLEKNEIKDILAEYSQHIDMRMGSGLSEAEAIKDFGDMDDLAAEILEAY,-0.277
20,HMNKVDEEKNAELVSTIQNKFSDVSAATKKKVKAFMAEHDIPNFKNADEIPTANLEAIVAMLNED,0.255
21,HMNKYNNIEDLKEEDFENISEKYQVPVSFVKSKLDDLINWHEKNPQKNHYKNYLSALRDWVKRDSLKIKL,-0.132
22,HMNLDELGNRIREQRIKQRLKQQDIANALMLSAQAVSKWERGENAPDISVLPDLVKILGVSVDWLLTGP,-0.949
23,HMNLDPHVVGHRLRDLRTRRDLTLADVAAETDISVSTLSRLESGSRRATLELLVPLARTYRVTLDELVDA,-1.15
24,HMNLDPIKRKSEILSLFESHKNVKFNEIFFEKVNKEFTVLTFLIILELVKDNIIDFSQTQEGLIEFFTR,-0.00641
25,HMNLDVPGIIKRAKQALNLKRDSELAEFLGVSRATVTNWAARNSIDFRLLLDKLGNTVDYNWLLLGKGNPK,-1.11
26,HMNLDYKQFQVFNNIETLNTFTNLLSDNKIDFEVENNSKIFDPSFANNDFEKEYIVKIHPNDFEKVY,0.0557
27,HMNLEIGAIIKSLRAKHKYTQEQLSAFLGVTPQAVSRWEAGNGYPDIELLPAIARFFEVSTDELLGL,-2.2
28,HMNLGDLYVIMEIAGQRDDVSARLMNREGQTFLVKTGTKLKSGDVVKEITPTYIKTDHDGEEAFLYF,-0.78

row,Sequence,soluble fraction (log2)
1,HMNLGETIYNLRKEKKLSQGDLAEQLSVSRQSVSKWENNSAVPDLDKLVKLSTIFGVSLDELVKG,-0.0337
2,HMNLGLTGDPSVLYSILLQRGDSSRADLQRQTGWSLSKTTLVLNQLLAQKLIVQVGAGRSTQYRVIN,-2.78
3,HMNLGNLAYESKVTKQVLNMIRPLHPEYSSDDITRAVKEILSEEGSRQRRVDEIARGALDVLMGNPR,0.0661
4,HMNLLQAHLLRLESAALLAEVREVDRQLSRWLHPLTPQSDVAIIDERNWEAAVARLTELGVHIEEGRW,-3.05
5,HMNLNIGNNIKNIRKSKNMTQTDFAELMGLSRSYIGDLENNRSNPSIKTLEAIARALDVPIVALIN,-0.528
6,HMNLSSETLSEMEARIGQMGVVELQDRRAYLLQEQEGTQNPSRLKEIADELSAIQKALVALV,0.705
7,HMNLTEIGQRIRDRREELGLSQDRLAKLGGLPRVTINQLETGSIGDLGVSKLLNLLDLLGLTLDA,-0.559
8,HMNLTLMDALKAAGLPVDGINLSMVNKMMEEQMPIDKTSLNQMYQLVQDNKDINVTTLVELKRLG,0.0398
9,HMNLTSNDAYSRILNAIITSELRPGDTVTEIQLAQKFGFGRTPVREAIMRLENEGFIVSAERKKRVYIL,-2.97
10,HMNLTSSDIQKILSYALLADNSITLNSIEESMASLKLKKMSAEQLIELLEVSSMVLRNTNNSWSIL,-2.28
11,HMNMENIADKIGKIYESLPEDLKLMIKYRDIDDLTYDEIAVKADLPVGTVRSRLHRAREQLLKELEKN,-0.233
12,HMNMEPNWLKWAKQLAALAQNGLTYSDNPYEIERYEHIRRIAAEMMAEGFELDTKTILELFPREKG,-2.68
13,HMNMFDMRKTGARISQLRRAAGLTQAELAEKLGISYQAVSSWERGSNMPDIGKLLDLARILNTTVDALLSA,-1.19
14,HMNMGKRFKELRKERKFTQQQLADRIGLAPSAISSYESGARYPSYDVLIKYSKIFHVTTDYLLG,-2.79
15,HMNMKVGPVPANVVPANIKAHVSNNYSKYQIVQMMQNDKGYQVKLSNGTDLYYDKDGNILKTS,0.0129
16,HMNMSVGAALRRRRNELGMTLRELADEAELTSGFLSQVENDRVSPSLKSLGRIAEVLRIPLFQLLS,-1.72
17,HMNMSVVEKVIQQISNPGRDSLIPILQAVQEEEGFISRESVIEIGKALDLPASKIYGVATFYNQFR,-0.206
18,HMNMTDVLVVNQTVRGGTQITESMLSVKKVDKSSLPDNYLKASLKDEVVGKYFDLGLTSGGVLTKDNISVS,-0.154
19,HMNMVSGHLQIKKGYYYVVLSYYDNRNKRHVKYVSTGLPEKGNKRKAEAALARVRSEFEPPQE,-3.95
20,HMNNDFIVKSTDSHKVNLRSQPDTHADIIKRLDDHTIVEKLKTVRKNWYLVQLKDTTTQGYVHKSQLERV,-0.357
21,HMNNDFVERLRKLFGHASMAEIARRIDVPHATIRNYFQGRLPAPEVLIKLARETGVSLNWLLTGEGKMFA,-1.19
22,HMNNENELSSIISKVLEENPAEKERFLNGEKKLAGFFMGKIMKATKGTADPKKAAQLLNEIL,0.311
23,HMNNFNVVVGKAIKNSFNTRENYITINAGKVLGIKTDMGVINDKGIVGIVEKTSKDFATIQSVLNIKS,0.177
24,HMNNGTDGLTTRLRRAILAGQYTFKERLPSERQLAEHFNTSRGTVRKVLQRLTTMNLVEQRAGSGTYVRYG,-0.302
25,HMNNIGSKIKSAKILNNLDDNQLSEITGIDKLQLRSIQDGQVNPTKMELEIISKALKLPTNYFTK,-0.115
26,HMNNIIYLIANKLDVGKRLDQFITIRTEFSRQRVINLIEDGYVKLNNKIINLKKYKIKGDEKIEITIPEIR,-1.32
27,HMNNKVAVKSGYYFEIFNKEEIPTTLAKTKQKVKINNIQYDLYQGMSLDDERKIDDMFGDRMGYSIDDY,-1.07
